This note sets out measurements from paper PMC6159526.

Data set [1] has as its target T1, HicB antitoxin (Streptococcus pneumoniae, UniProt A0A0H2URC7 1-150). Kind of data set: EMSA. A general note: In EMSA bound probe runs differently from free probe, usually more slowly.
The target of data set [2] is T2, HicB antitoxin;HicA toxin (Streptococcus pneumoniae;Streptococcus …, UniProt A0A0H2URC7;A0A0H2URA5 1-150;1-68, |). Briefly: EMSA.
In data set [3] the target is T1, HicB antitoxin. Briefly: ITC.
Data set [4] concerns the target T2, HicB antitoxin;HicA toxin. Briefly: ITC. A general note: In ITC the heat of successive injections is recorded.
Data set [5] concerns the target T3, HicB109-150 (C-terminal DNA-binding domain) (Streptococcus pneumoniae, UniProt A0A0H2URC7 109-150).
T3 chain: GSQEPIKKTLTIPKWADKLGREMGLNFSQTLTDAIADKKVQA
Briefly: NMR titration.

B1: Pal-I (dsDNA)
DNA 1: TCTGTAACGTTCGATACAGA
DNA 2: TCTGTATCGAACGTTACAGA
As to B1, the binding result (in the data set with HicB antitoxin [1]; in data set [2]) was “no binding” throughout.

B2: hicBA promoter DNA, 28 bp (dsDNA)
DNA 1: TAATAGAATAATAAGTATCACTCCTTTA
DNA 2: TAAAGGAGTGATACTTATTATTCTATTA
As usually defined, the Kd is the constant that tells how readily two partners part at equilibrium. For B2, the Kd came to 8.8 ± 1.1 µM with HicB antitoxin [3], 4.2 ± 0.4 µM in data set [4] and 4.5 ± 1.1 µM in data set [5].
